Molecular target: T1, PLA2 (Bovine pancreas, EC 3.1.1.4) (Bos taurus, UniProt P00593)
T1 construct: 0.18 Unit PLA2 (Bovine pancreas, EC 3.1.1.4, Sigma); purchased Sigma; host or cells: bovine pancreas
Test: Inhibitory effect of synthetic peptides on PLA2 in vitro ([14C]-arachidonic acid release)
Assay type: biochemical
Settings: peptides 1×10^−8 M, preincubated 15 min at 37° C.; compared with the peptides known as PLA2 inhibitors
Description: It has been examined whether synthetic peptides contain inhibitory effect on PLA2 activity. A established PLA2 assay method was used to determine the enzymatic activity by measuring the release [^14C]-arachidonic acid from 1-acyl-2-[1-^14C]arachidonic acid-glycerophospho-ethanolamine (Biochem. Pharmacol. 54, 259–268, 1997). To determine the inhibitory activity, 0.18 Unit PLA2 (Bovine pancreas, EC 3.1.1.4, Sigma; 1.0 unit will hydrolyze […] of L-phosphatidylcholine to L-lysophosphatidylcholine and a fatty acid per min. at pH 8.0 at 37° C.) was preincubated for 15 minutes with the synthetic peptides (1×10^−8 M) at 37° C. in […] before adding 1-acyl-2-[1-^14C]arachidonic acid-glycerophospho-ethanolamine. The control was also PLA2 preincubated with buffer. After pre-incubation, PLA2 activity was assayed using sonicated liposomes, prepared as established method (Biochem. Biophys. Acta. 1083, 80–88, 1991). […] of 1-acyl-2-[1-^14C]arachidonic acid-glycerophospho-ethanolamine (about 2×10^5 dpm) was added in pre-incubated mixture, and incubated for 1 hr at 37° C. […]
For inhibitory test of the peptides given, each value is the mean of data from three separate experiments (S.D.<10%). The value of PLA2 activity incubated without peptides was determined as 100% PLA2 activity that is 5.57 pmole arachidonyl/hr. % Inhibition was shown in FIG. 1.

T1 sequence (P00593 23-145): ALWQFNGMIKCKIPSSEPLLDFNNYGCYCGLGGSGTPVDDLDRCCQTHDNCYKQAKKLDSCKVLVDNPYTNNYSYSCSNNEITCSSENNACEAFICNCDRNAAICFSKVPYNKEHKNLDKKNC

KVLDGQDP [Peptide R2, synthetic peptide of the invention]
PLA2 activity (FIG. 1), result in words: significantly reduced

KVLDPVKG [Peptide R1, synthetic peptide of the invention]
PLA2 activity (FIG. 1), result in words: significantly reduced

Reference: patent US7037502B2, “Peptide with the amino acid sequence of KVLDGQDP having anti-inflammatory properties” (priority 2001, dated 2006)
